Measurements from the supplement of paper PMC12042874.
± gives the uncertainty stated by the source.

Assay: amyloid nucleation score (Sup35N fusion, yeast selection) (log enrichment); library NNK1; higher = more nucleation; inactive = no reads after selection
Outline: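 In psi-negative yeast, Sup35N fusions carrying peptides of 20 random codons were induced with 100 μM copper sulfate for 24 hours. The cells then grew 7 days at 30°C on medium lacking adenine and uracil, and plasmid inserts from input and output were Illumina-sequenced, excluding sequences with under 100 input reads. Nucleation score is the DiMSum log enrichment of output over input reads, centred on the mode score of non-aggregating sequences.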

Row | Substance | amyloid nucleation score
1 | DFFLIFWWDSFSAGVCQMNS | 0.356 ± 0.51
2 | DFNHYDRSSW | 2.45 ± 0.18
3 | DFSCGRMGFALERSLAMYRA | 0.041 ± 0.53
4 | DFYADIASVMSVPILCSLLG | inactive
5 | DFYLT | -0.257 ± 1.4
6 | DFYLWPGMFSKYLGLNATLS | -0.604 ± 0.57
7 | DFYYNALIREVGQ | -0.825 ± 0.75
8 | DGASMSKRPPRVILKLGIFD | 0.054 ± 0.33
9 | DGFKAALICAIANY | 0.397 ± 0.3
10 | DGLRCIGCIGNTGDWNS | 6.86 ± 0.085
11 | DGSYTWWAFGSIQRCEGLTV | 0.177 ± 0.47
12 | DIFRIYMWVHCMDRHSDGTV | 2.29 ± 0.27
13 | DIIVFSVLFLVTLDGDLWC | 0.476 ± 0.97
14 | DISRMMSISRLFFYNNVLFT | -0.524 ± 0.44
15 | DKNML | 1.44 ± 0.54
16 | DKRECFGLDLEIWSMVVWMW | 0.611 ± 0.8
17 | DKRIARLNPRIGTSVSWDVS | 0.89 ± 0.5
18 | DLCQEPIG | -0.379 ± 0.3
19 | DLEGMPELARDVGAKI | -0.825 ± 0.98
20 | DLEIAGREGS | -0.322 ± 0.55
21 | DLFSTVFNWMTNCPFKNSW | -0.32 ± 0.49
22 | DLIGFSWGTIEWLRA | -0.931 ± 0.64

Row | Substance | amyloid nucleation score
23 | DLRKAGGWHRVIC | 0.111 ± 0.56
24 | DLRSSGFDTELILQVSVQLL | -0.264 ± 0.59
25 | DLTCWLLFFNLLYSI | 0.492 ± 0.33
26 | DLTVRPACAGCRLYSEVILD | -0.852 ± 1.6
27 | DLYSGSSFPEISGETSGYIP | 0.06 ± 0.49
28 | DMIDSGGNALHSSQAHNYRR | 1.08 ± 0.37
29 | DMMAIGSTTVCLVLRFFGKM | -0.929 ± 2.7
30 | DMSFRYLSGSVNLCVVHLRR | -0.244 ± 1.1
31 | DMTWNKQHFYGCSISYRSGT | 5.99 ± 0.086
32 | DNDPMYYADSIEECF | inactive
33 | DNGCDEVCWELVFEFVD | 0.562 ± 0.39
34 | DNGFSTQA | -0.11 ± 0.82
35 | DNKGYL | -0.977 ± 1
36 | DNTGQVRIW | -0.562 ± 0.62
37 | DNTIYDSMCFDAGNPDLCIH | 0.439 ± 0.23
38 | DRCVQCTALTASTGR | -0.113 ± 0.94
39 | DRFRRTNAIGLVHMDSGKG | 0.907 ± 0.39
40 | DRPTFKLVFTMKLVSLVTSL | inactive
41 | DSEKGSVLYLVMRGMNCVSI | 4.69 ± 0.052
42 | DSFVRT | inactive
43 | DSGCRTRVTLSRGFYRTFSS | 1.2 ± 0.6
44 | DSGTLDQYH | 0.157 ± 0.86

Row | Substance | amyloid nucleation score
45 | DSLFTIYMNSISFR | 5.83 ± 0.093
46 | DSLWLRYVFMRTVLLMVHVR | inactive
47 | DSMKMIILVDVGRNHGLGHR | 3.32 ± 0.16
48 | DSRGHGEPRRTWEW | -0.006 ± 0.58
49 | DSSRTLFCRAHWGSRFNGRG | -1.69 ± 2.4
50 | DSSSYICSLSSPYSWSISFF | 7.366 ± 0.07
51 | DSTRTDSLYVSACHLLYLAE | 0.178 ± 0.64
52 | DSWEYFLP | -0.375 ± 0.53
53 | DTCYHINIGKTQSADQRDCT | 0.219 ± 0.25
54 | DTGSFFVSVRLSAWVIPPCK | -0.063 ± 0.39
55 | DTKCMMENRAIVMFCIQGKH | 0.827 ± 0.3
56 | DTLIFVLREVTLLNDAGVSS | 0.646 ± 0.42
57 | DTSSACLCNRDRSDLLVCRV | inactive
58 | DVFVY | -0.273 ± 0.45
59 | DVFYVILNVSLVCSVPFLSA | -0.179 ± 0.72
60 | DVLLPSLTEVAINFSSVTLK | -0.242 ± 0.41
61 | DVLLSFEYLD | inactive
62 | DVREITCLSHKRTRHQVHPV | 0.07 ± 1.2
63 | DVRRYSGLNRAMKLRWGSCA | 0.193 ± 0.79
64 | DVVFGFLGVGKLIGVDTMRR | -0.725 ± 0.9
65 | DVYKKIFLRLNCYQVSMRIE | -0.697 ± 0.27
66 | DWFAECVFLRRTLESY | -0.601 ± 0.4

Row | Substance | amyloid nucleation score
67 | DWLFLEFGHFTMPEHTKELE | -0.68 ± 1.2
68 | DWLHQSRL | 0.239 ± 0.42
69 | DWVPLKSHISWLSVTRVLIV | 0.636 ± 0.46
70 | DWVWWRTPSELVVYGADNWR | -0.328 ± 0.84
71 | DWWLPGMLMNRGGLQIVVLV | -0.84 ± 1.1
72 | DYFLCKFSTDDPCLVFISWE | inactive
73 | DYIIPMLSI | 0.515 ± 0.9
74 | DYKVTRPVDLVFDFGGIVYT | 0.714 ± 0.22
75 | DYLLCLILAKVWDDSNGSWV | 1.52 ± 0.5
76 | DYRIEVSLSVVYCFGLNMRN | 2.38 ± 0.082
77 | DYSNERLTDGLRMGGTRVSG | 0.251 ± 0.54
78 | EALNPVVLPSTN | 1.55 ± 0.14
79 | EASLAPYEESELA | 1.76 ± 0.54
80 | EAVSPYMYNYFRMANEQ | 0.311 ± 0.42
81 | ECAIKG | 1.38 ± 0.69
82 | ECRGQLSDKIVQYNRPEVYW | -0.199 ± 0.28
83 | ECRMYLLTLVARRSRNPDNC | 1.03 ± 0.61
84 | ECYLV | -0.663 ± 0.8
85 | EDDFASMRLDSLRELVLHNR | inactive
86 | EDLRLGSSYYEMANEASYGT | 1.82 ± 0.11
